Measurements published in the Human Domainome abundance scans (Beltran et al. 2025).
± gives the uncertainty stated by the source.

experiment: abundance fitness (aPCA) (normalised: wild type 0, dead -1); higher = more abundant; growth selection in yeast, the domain comes from the species named; conditions: Bacillus caldolyticus

Substance | abundance fitness
Cold shock protein CspB S24E, P41016 | 0.012 ± 0.053
Cold shock protein CspB G22P, P41016 | 0.032 ± 0.047

same assay, conditions: Homo sapiens

Substance | abundance fitness
Scaffold attachment factor B1 G27K, Q15424 | -0.204 ± 0.1
Scaffold attachment factor B1 N47M, Q15424 | -0.224 ± 0.073
Scaffold attachment factor B1 D33L, Q15424 | -0.437 ± 0.06
Scaffold attachment factor B1 I65R, Q15424 | -0.287 ± 0.045
Scaffold attachment factor B1 E66G, Q15424 | -0.218 ± 0.052
Scaffold attachment factor B1 I37N, Q15424 | -0.25 ± 0.078
Scaffold attachment factor B1 R29L, Q15424 | -0.134 ± 0.048
Scaffold attachment factor B1 R40S, Q15424 | -0.353 ± 0.062
Scaffold attachment factor B1 E66I, Q15424 | -0.261 ± 0.058
Scaffold attachment factor B1 A41R, Q15424 | -0.12 ± 0.051
Scaffold attachment factor B1 D33W, Q15424 | -0.644 ± 0.062
Scaffold attachment factor B1 R60T, Q15424 | -0.268 ± 0.081
Scaffold attachment factor B1 E42M, Q15424 | -0.15 ± 0.074
Scaffold attachment factor B1 D73G, Q15424 | -0.124 ± 0.049
Scaffold attachment factor B1 T28I, Q15424 | -0.038 ± 0.065
Scaffold attachment factor B1 L34T, Q15424 | -0.452 ± 0.066
Scaffold attachment factor B1 V48K, Q15424 | -0.118 ± 0.095
Scaffold attachment factor B1 V48E, Q15424 | -0.231 ± 0.075
Scaffold attachment factor B1 E42Q, Q15424 | -0.26 ± 0.083
Scaffold attachment factor B1 I77M, Q15424 | -0.305 ± 0.087
Scaffold attachment factor B1 S32L, Q15424 | -0.294 ± 0.071
Scaffold attachment factor B1 T26I, Q15424 | -0.314 ± 0.14

Substance | abundance fitness
Scaffold attachment factor B1 G70M, Q15424 | -0.307 ± 0.064
Scaffold attachment factor B1 K54E, Q15424 | -0.207 ± 0.079
Scaffold attachment factor B1 S50M, Q15424 | -0.302 ± 0.097
Scaffold attachment factor B1 D67Y, Q15424 | -0.263 ± 0.13
Scaffold attachment factor B1 R46Q, Q15424 | -0.734 ± 0.089
Scaffold attachment factor B1 N53H, Q15424 | -0.127 ± 0.071
Scaffold attachment factor B1 L34I, Q15424 | -0.433 ± 0.096
Scaffold attachment factor B1 I77G, Q15424 | -0.195 ± 0.064
Scaffold attachment factor B1 R46S, Q15424 | -0.763 ± 0.068
Scaffold attachment factor B1 D73F, Q15424 | -0.494 ± 0.085
Scaffold attachment factor B1 L39Y, Q15424 | -0.824 ± 0.093
Scaffold attachment factor B1 K54N, Q15424 | -0.444 ± 0.075
Scaffold attachment factor B1 R30A, Q15424 | -0.289 ± 0.066
Scaffold attachment factor B1 E68G, Q15424 | -0.289 ± 0.045
Scaffold attachment factor B1 E42V, Q15424 | -0.53 ± 0.053
Scaffold attachment factor B1 P72W, Q15424 | -0.296 ± 0.068
Scaffold attachment factor B1 N71M, Q15424 | -0.3 ± 0.057
Scaffold attachment factor B1 D33V, Q15424 | -0.493 ± 0.054
Scaffold attachment factor B1 E42L, Q15424 | -0.188 ± 0.061
Scaffold attachment factor B1 D33C, Q15424 | -0.354 ± 0.061
Scaffold attachment factor B1 D49T, Q15424 | -0.552 ± 0.081
Scaffold attachment factor B1 A64K, Q15424 | -0.228 ± 0.08

Substance | abundance fitness
Scaffold attachment factor B1 S32G, Q15424 | -0.235 ± 0.064
Scaffold attachment factor B1 L61F, Q15424 | -0.299 ± 0.067
Scaffold attachment factor B1 N47A, Q15424 | -0.236 ± 0.056
Scaffold attachment factor B1 M58W, Q15424 | -0.439 ± 0.069
Scaffold attachment factor B1 K54F, Q15424 | -0.249 ± 0.062
Scaffold attachment factor B1 E80A, Q15424 | -0.055 ± 0.051
Scaffold attachment factor B1 L43C, Q15424 | -0.123 ± 0.068
Scaffold attachment factor B1 S32R, Q15424 | -0.114 ± 0.057
Scaffold attachment factor B1 R29Y, Q15424 | -0.056 ± 0.076
Scaffold attachment factor B1 E80K, Q15424 | -0.889 ± 0.25
Scaffold attachment factor B1 M58Y, Q15424 | -0.341 ± 0.079
Scaffold attachment factor B1 G52H, Q15424 | -1.02 ± 0.15
Scaffold attachment factor B1 G27Y, Q15424 | -0.088 ± 0.12
Scaffold attachment factor B1 I77N, Q15424 | -0.235 ± 0.073
Scaffold attachment factor B1 L57Q, Q15424 | -0.527 ± 0.074
Scaffold attachment factor B1 R46A, Q15424 | -0.745 ± 0.069
Scaffold attachment factor B1 N71Q, Q15424 | -0.263 ± 0.095
Scaffold attachment factor B1 L34C, Q15424 | -0.321 ± 0.079
Scaffold attachment factor B1 E80D, Q15424 | -0.323 ± 0.14
Scaffold attachment factor B1 I75M, Q15424 | -0.19 ± 0.065
Scaffold attachment factor B1 S50R, Q15424 | -0.365 ± 0.06
Scaffold attachment factor B1 S55D, Q15424 | -0.187 ± 0.082

Substance | abundance fitness
Scaffold attachment factor B1 N47C, Q15424 | -0.274 ± 0.073
Scaffold attachment factor B1 R30N, Q15424 | -0.411 ± 0.1
Scaffold attachment factor B1 V56M, Q15424 | -0.16 ± 0.07
Scaffold attachment factor B1 V36C, Q15424 | -0.281 ± 0.072
Scaffold attachment factor B1 I77A, Q15424 | -0.157 ± 0.062
Scaffold attachment factor B1 T78D, Q15424 | -0.271 ± 0.086
Scaffold attachment factor B1 E59K, Q15424 | -0.152 ± 0.084
Scaffold attachment factor B1 G27N, Q15424 | -0.187 ± 0.12
Scaffold attachment factor B1 S50A, Q15424 | -0.2 ± 0.062
Scaffold attachment factor B1 R60K, Q15424 | -0.099 ± 0.065
Scaffold attachment factor B1 M58D, Q15424 | -0.582 ± 0.078
Scaffold attachment factor B1 I77Q, Q15424 | -0.262 ± 0.077
Scaffold attachment factor B1 E76G, Q15424 | -0.096 ± 0.053
Scaffold attachment factor B1 T26W, Q15424 | -0.355 ± 0.075
Scaffold attachment factor B1 N53A, Q15424 | -0.175 ± 0.056
Scaffold attachment factor B1 E74Q, Q15424 | -0.32 ± 0.088
Scaffold attachment factor B1 G52W, Q15424 | -1.2 ± 0.073
Scaffold attachment factor B1 K62C, Q15424 | -0.27 ± 0.057
Scaffold attachment factor B1 S79A, Q15424 | -0.127 ± 0.065
Scaffold attachment factor B1 I37S, Q15424 | -0.17 ± 0.054
Scaffold attachment factor B1 I75C, Q15424 | -0.28 ± 0.086
Scaffold attachment factor B1 E68A, Q15424 | -0.233 ± 0.05

Substance | abundance fitness
Scaffold attachment factor B1 S55Y, Q15424 | -0.307 ± 0.08
Scaffold attachment factor B1 E76K, Q15424 | -0.294 ± 0.096
Scaffold attachment factor B1 R35T, Q15424 | 0.014 ± 0.064
Scaffold attachment factor B1 E59S, Q15424 | -0.111 ± 0.051
Scaffold attachment factor B1 E74G, Q15424 | -0.202 ± 0.063
Scaffold attachment factor B1 P72R, Q15424 | -0.23 ± 0.052
Scaffold attachment factor B1 I77D, Q15424 | -0.212 ± 0.071
Scaffold attachment factor B1 S79G, Q15424 | -0.119 ± 0.062
Scaffold attachment factor B1 S50C, Q15424 | -0.226 ± 0.072
Scaffold attachment factor B1 R40L, Q15424 | -0.219 ± 0.055
Scaffold attachment factor B1 D33H, Q15424 | -0.262 ± 0.1
Scaffold attachment factor B1 I65N, Q15424 | -0.598 ± 0.089
Scaffold attachment factor B1 S79T, Q15424 | -0.129 ± 0.062
Scaffold attachment factor B1 V56K, Q15424 | -0.197 ± 0.064
Scaffold attachment factor B1 L57F, Q15424 | -1.21 ± 0.1
Scaffold attachment factor B1 D38F, Q15424 | -0.874 ± 0.084
Scaffold attachment factor B1 R40Y, Q15424 | -0.549 ± 0.077
Scaffold attachment factor B1 S51Q, Q15424 | -0.271 ± 0.079
Scaffold attachment factor B1 R44Q, Q15424 | -0.074 ± 0.071
Scaffold attachment factor B1 S50T, Q15424 | -0.312 ± 0.093
